From patent US20230190887A1, “TARGETING G3BP AGGREGATION TO PREVENT NEURODEGENERATION” (priority 2019, published 2023) come the findings set out here.

Assay [1] concerns NMJs in co-cultures with puromycin-resistant muscles. Briefly: NMJ function after local protein synthesis inhibition. The format is cell-based, mouse. Particulars: Puromycin 100 μg/mL exclusively in NMJ compartment, 16 h. As for the experimental part:
Analysis of NMJ function following protein synthesis inhibition with puromycin was performed by co-culturing WT MNs with primary muscles transfected with empty […]-mCherry vectors expressing PAC gene for puromycin resistance. After 12 days in co-culture, once cultures matured and NMJ were formed, Puromycin (100 μg/mL) was added exclusively to the distal (NMJ) compartment for 16 h. The proximal compartment was kept with higher volume of medium for allowing puromycin to act only locally within the NMJ compartment. After 16 h, cultures were labeled with OGB, and the calcium activity of axons and muscles was recorded. Analysis of the percent of muscles with calcium transients in co-culture, was performed on muscles with at least one overlapping axon. Only muscles that expressed mCherry (as a reporter for the expression of PAC) were used for this analysis. OGB lyophilized stock (Life technologies) was resuspended with 20% (w/v) Pluronic acid for a stock concentration of 3 mM Stock was diluted 1:1,000 in the appropriate medium. OGB was incubated with cultures for […] in 37° C., 5% CO2 incubator, and then washed 3 times with culture medium prior imaging. Calcium transients in axons and muscles were recorded in a spinning disk confocal microscope equipped with an EMCCD camera with ×40 oil objective using 488 nm laser. Image sequences of 1,000 frames were acquired at frame rate of 25 FPS. […]

Assay [2] concerns the target HuR (ELAVL1), endogenous rat protein in axons of cultured adult DRG neurons (rat) (UniProt B5DF91). Briefly: proximity ligation assay in axons of fixed rat DRG neurons.
Assay [3] has as its target DCP1A, endogenous rat protein in axons of cultured adult DRG neurons (rat) (UniProt D4AE80). The description is as above.

Sequence of HuR (ELAVL1), endogenous rat protein in axons of cultured adult DRG neurons (rat) (B5DF91 2-326): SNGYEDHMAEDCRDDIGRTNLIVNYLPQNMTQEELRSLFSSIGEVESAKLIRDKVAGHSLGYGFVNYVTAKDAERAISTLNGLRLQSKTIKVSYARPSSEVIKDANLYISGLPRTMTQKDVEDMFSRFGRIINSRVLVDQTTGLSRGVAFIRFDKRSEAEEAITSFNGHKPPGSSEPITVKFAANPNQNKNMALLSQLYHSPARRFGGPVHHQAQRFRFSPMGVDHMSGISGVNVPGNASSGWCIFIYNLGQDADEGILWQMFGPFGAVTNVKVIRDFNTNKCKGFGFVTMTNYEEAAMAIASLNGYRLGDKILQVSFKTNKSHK

Take `COc1ccc(C[C@H](N)C(=O)N[C@H]2[C@@H](O)[C@H](n3cnc4c(N(C)C)ncnc43)O[C@@H]2CO)cc1` [puromycin, Puromycin]: the “active (innervated and contracting) muscles, calcium transients” value in assay [1] is given as “pronounced decrease in active muscles”. Regarding “G3BP1 (Ras GAP SH3 domain binding protein 1), endogenous rat protein in axons of cultured adult DRG neurons (from UniProt D3ZYS7 1-465)”, the values for the PLA signals per area in assay [2] and in assay [3] were 0.038 and 0.027 signals/m^2, respectively.
